In patent US9120862 (AbbVie / Abbott, dated 2015):
Bridge positions count the residues as written; N and C are the ends. Ends that are not written are not given here.

B1: monoclonal antibody 3C10 (produced by hybridoma cell line ATCC deposit designation PTA-9638) (antibody, V domains shown)
VH: EVQLVESGGDLVKPGGSLKLSCAASGFTFSSYGMSWVRQTPDKRLEWVATISRGGSSTYYPDSVKGRFTISRDNAKNNLYLQMSSLKSEDTAMYYCASLNYGNFFDYWGQGTTLTVSS
VL: DVVMTQTPLSLPVSLGDQASISCRSSQSLVHSNGNTYLHWYLQKPGQSPKLLIYKVSNRFSGVPDRFSGSGSGTDFTLKISRVEAEDLGVYFCSQNRHVPPTFGGGTKLEIKR

Molecular target: T1, Alexa-488 labeled PIVKA-II Gla domain peptide (13-27) (human, disulfide 5-10 (inferred); also: labelled with Alexa Fluor 488 TFP ester, site not given here)
T1 construct: also called Alexa488-PIVKA-II (13-27); Alexa488-PIVKA-II peptide (13-27 cyc)
T1 peptide: LERECVEETCSYEEA
Test: fluorescence quenching titration: BHQ-labelled mAb 3C10 titrated against 0.05 nM Alexa488 PIVKA-II peptide (13-27)

Binder | EC50 (read off the curve)
B1 | ~100 pM

molecular target: B1; test: FCS competition: 2 nM Alexa488-PIVKA-II (13-27) premixed with 10 nM mAb 3C10, analog peptide added, overnight; D of the tracer (high D = tracer displaced)

Binder | Apparent Diffusion Coefficient (D)
LEKECYEEICVYEEA (disulfide 5-10 (inferred)) [13-27 Gla domain PIVKA Protein Z peptide] | 51 um^2/sec
LERECIEELCNKEEA (disulfide 5-10 (inferred)) [13-27 Gla domain PIVKA Protein S peptide] | 50 um^2/sec
LERECMEEKCSFEEA (disulfide 5-10 (inferred)) [13-27 Gla domain PIVKA IX peptide] | 48 um^2/sec
LERECKEEQCSFEEA (disulfide 5-10 (inferred)) [13-27 Gla domain PIVKA Factor VII peptide] | 49 um^2/sec
LERECMEETCSYEEA (disulfide 5-10 (inferred)) [13-27 Gla domain PIVKA Factor X peptide] | 52 um^2/sec
LERECIEEICDFEEA (disulfide 5-10 (inferred)) [13-27 Gla domain PIVKA Protein C peptide] | 53 um^2/sec
